Experiment: Oxygen dissociation rates of DevS proteins, stopped flow
Type: binding, Mycobacterium tuberculosis

B1: full-length Y171F DevS (protein, UniProt P9WGK3 1-578, looked up, variant Y171F)
chain: MTTGGLVDENDGAAMRPLRHTLSQLRLHELLVEVQDRVEQIVEGRDRLDGLVEAMLVVTAGLDLEATLRAIVHSATSLVDARYGAMEVHDRQHRVLHFVYEGIDEETVRRIGHLPKGLGVIGLLIEDPKPLRLDDVSAHPASIGFPPYHPPMRTFLGVPVRVRDESFGTLFLTDKTNGQPFSDDDEVLVQALAAAAGIAVANARLYQQAKARQSWIEATRDIATELLSGTEPATVFRLVAAEALKLTAADAALVAVPVDEDMPAADVGELLVIETVGSAVASIVGRTIPVAGAVLREVFVNGIPRRVDRVDLEGLDELADAGPALLLPLRARGTVAGVVVVLSQGGPGAFTDEQLEMMAAFADQAALAWQLATSQRRMRELDVLTDRDRIARDLHDHVIQRLFAIGLALQGAVPHERNPEVQQRLSDVVDDLQDVIQEIRTTIYDLHGASQGITRLRQRIDAAVAQFADSGLRTSVQFVGPLSVVDSALADQAEAVVREAVSNAVRHAKASTLTVRVKVDDDLCIEVTDNGRGLPDEFTGSGLTNLRQRAEQAGGEFTLASVPGASGTVLRWSAPLSQ
modifications: full-length
  O2 koff: 3.85 ± 0.69 ^b s^−1
